Assay results as given in doi:10.1101/2024.02.12.579695.
Each block holds one molecule with its values, some of them ahead of it.

Legend:
[1] = target: truncated DR2539 (DR2539tr, residues 4-142) (Deinococcus radiodurans); assay: SAXS
[2] = target: DR2539 full length (Deinococcus radiodurans); assay: SEC
[3] = target: DR2539 full length (Deinococcus radiodurans); assay: SAXS
[4] = target: T1, DR2539 full length (Deinococcus radiodurans, UniProt Q9RRF3 1-232); assay: EMSA
T1 sequence: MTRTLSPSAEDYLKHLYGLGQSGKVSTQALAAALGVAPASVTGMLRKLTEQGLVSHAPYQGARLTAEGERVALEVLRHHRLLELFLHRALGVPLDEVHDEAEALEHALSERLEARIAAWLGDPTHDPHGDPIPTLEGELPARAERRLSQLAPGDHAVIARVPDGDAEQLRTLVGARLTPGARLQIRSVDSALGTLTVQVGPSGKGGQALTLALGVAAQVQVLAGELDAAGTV

stoichiometry N [1]: 2
Molecule: truncated DR2539 (DR2539tr, residues 4-142) (domain or fragment)

stoichiometry N [2]: 2 | stoichiometry N [3]: 2
Molecule: DR2539 full length (natural protein)

B1: dr1709p_wt (dsDNA)
DNA 1: ATTTTAGTCGCGCCTAAAATA
DNA 2: TATTTTAGGCGCGACTAAAAT
binding result [4]: binds
